According to patent publication US20050276811A1:

Legend:
IgM^CM-22 [1] = test: cell-based or functional assay
IgM^CM-22 [2] = test: SPR (BiaCore), IgM^CM-22 amine-coupled to CM5 chip, N2 injected at 10.5-120 µM, steady-state fit with 1:1 Langmuir isotherm
IgM^CM-22 [3] = test: competition ELISA: synthetic P8 peptide titrated against phage P8 binding to IgM^CM-22-coated plate

Row | mean pathology score, intestinal RI in RAG-1-/- mice given IgM^CM-22 mixed with N2 versus IgM^CM-22 and saline (pathology score) (IgM^CM-22 [1]) | Kd (IgM^CM-22 [2]) | concentration of P8 sufficient to block IgM^CM-22 (IgM^CM-22 [1]) | mean pathology score, intestinal RI in RAG-1-/- mice given IgM^CM-22 mixed with P8 versus IgM^CM-22 alone (pathology score) (IgM^CM-22 [1]) | IC50 (IgM^CM-22 [3]) | Binder
1 | 13 | 123 µM |  |  |  | LMKNMDPLNDNV [self-peptide N2]
2 |  |  | 10 µM | 6 | 10 µM | NGNNVNGNRNNN [synthetic peptide P8]
